Results on eleven molecules are retold here after patent US20220402983A1 (Janssen / Centocor, published 2022).

*1 amine or outer side, *2 acyl side, *3 side chain or, on linkers, in order; H or OH if unused. Bridges are numbered along the chain shown (N, C = ends). [ ]: non-standard residue; d: D form. The star is where a group is joined. Phe(4-OMe) = COc1ccc(C[C@H](N[*:1])C(=O)[*:2])cc1; Trp(7-Me) = Cc1cccc2c(C[C@H](N)C(=O)O)c[nH]c12; 2Nal = N[C@@H](Cc1ccc2ccccc2c1)C(=O)O; Propanoyl(3,3,3-F3) = O=C(CC(F)(F)F)*; AEF = NCCOc1ccc(C[C@H](N)C(=O)O)cc1; αMeF = C[C@](N)(Cc1ccccc1)C(=O)O; Pen = CC(C)(S)[C@H](N)C(=O)O; αMeK = C[C@](N)(CCCCN)C(=O)O; Thp = NC1(C(=O)O)CCOCC1; Abu = CC[C@H](N)C(=O)O; Propionyl = CCC(=O)*

T1: human IL-23R (interleukin-23 receptor) (human, UniProt Q5VWK5 24-629)
T1 sequence (looked up): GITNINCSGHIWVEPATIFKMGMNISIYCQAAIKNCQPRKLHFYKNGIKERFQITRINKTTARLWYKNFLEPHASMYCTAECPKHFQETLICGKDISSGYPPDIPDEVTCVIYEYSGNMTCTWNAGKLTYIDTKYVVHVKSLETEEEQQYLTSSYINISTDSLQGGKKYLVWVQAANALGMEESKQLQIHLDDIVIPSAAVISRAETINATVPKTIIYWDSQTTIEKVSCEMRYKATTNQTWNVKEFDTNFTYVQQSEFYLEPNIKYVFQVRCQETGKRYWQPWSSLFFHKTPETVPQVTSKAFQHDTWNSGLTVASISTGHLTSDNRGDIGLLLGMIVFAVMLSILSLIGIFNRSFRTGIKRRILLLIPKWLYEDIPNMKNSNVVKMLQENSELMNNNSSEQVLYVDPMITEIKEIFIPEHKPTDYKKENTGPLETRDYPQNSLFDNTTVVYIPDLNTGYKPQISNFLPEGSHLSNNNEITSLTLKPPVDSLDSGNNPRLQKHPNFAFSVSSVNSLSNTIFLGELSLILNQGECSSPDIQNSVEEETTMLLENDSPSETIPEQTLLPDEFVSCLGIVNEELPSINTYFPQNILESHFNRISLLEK

B1: Compound No. 10 (peptide)
peptide: Propionyl-[dR][Pen]QTWQ[Pen][AEF][2Nal][Thp]EN[Thp]-NH2
modifications: disulfide 2-7
SMILES: CCC(=O)N[C@H](CCCNC(=N)N)C(=O)N[C@@H]1C(=O)N[C@@H](CCC(N)=O)C(=O)N[C@@H]([C@@H](C)O)C(=O)N[C@@H](Cc2c[nH]c3ccccc23)C(=O)N[C@@H](CCC(N)=O)C(=O)N[C@H](C(=O)N[C@@H](Cc2ccc(OCCN)cc2)C(=O)N[C@@H](Cc2ccc3ccccc3c2)C(=O)NC2(C(=O)N[C@@H](CCC(=O)O)C(=O)N[C@@H](CC(N)=O)C(=O)NC3(C(N)=O)CCOCC3)CCOCC2)C(C)(C)SSC1(C)C
B2: Compound No. 77 (peptide)
peptide: Ac-[dR][Pen]NT[Trp(7-Me)]K(Ac)[Pen][AEF][2Nal][Thp]EN[αMeF]-NH2
modifications: disulfide 2-7
SMILES: CC(=O)NCCCC[C@@H]1NC(=O)[C@H](Cc2c[nH]c3c(C)cccc23)NC(=O)[C@H]([C@@H](C)O)NC(=O)[C@H](CC(N)=O)NC(=O)[C@@H](NC(=O)[C@@H](CCCNC(=N)N)NC(C)=O)C(C)(C)SSC(C)(C)[C@@H](C(=O)N[C@@H](Cc2ccc(OCCN)cc2)C(=O)N[C@@H](Cc2ccc3ccccc3c2)C(=O)NC2(C(=O)N[C@@H](CCC(=O)O)C(=O)N[C@@H](CC(N)=O)C(=O)N[C@@](C)(Cc3ccccc3)C(N)=O)CCOCC2)NC1=O
B3: Compound No. 65 (peptide)
peptide: Ac-[Abu]QT[Trp(7-Me)]K(Ac)C[AEF][2Nal][αMeK]K(Ac)N[dL]-NH2
modifications: thioether 1-6
B4: Compound No. 66 (peptide)
peptide: Ac-[Abu]QT[Trp(7-Me)]K(Ac)C[AEF][2Nal][αMeK]K(Ac)N[αMeF]-NH2
modifications: thioether 1-6
B5: Compound No. 4 (peptide)
peptide: Propionyl-[dR][Pen]QTWQ[Pen][Phe(4-OMe)][2Nal][Thp]EN[Thp]-NH2
modifications: disulfide 2-7
SMILES: CCC(=O)N[C@H](CCCNC(=N)N)C(=O)N[C@@H]1C(=O)N[C@@H](CCC(N)=O)C(=O)N[C@@H]([C@@H](C)O)C(=O)N[C@@H](Cc2c[nH]c3ccccc23)C(=O)N[C@@H](CCC(N)=O)C(=O)N[C@H](C(=O)N[C@@H](Cc2ccc(OC)cc2)C(=O)N[C@@H](Cc2ccc3ccccc3c2)C(=O)NC2(C(=O)N[C@@H](CCC(=O)O)C(=O)N[C@@H](CC(N)=O)C(=O)NC3(C(N)=O)CCOCC3)CCOCC2)C(C)(C)SSC1(C)C
B6: Compound No. 76 (peptide)
peptide: Ac-[Pen]NT[Trp(7-Me)]K(Ac)[Pen][AEF][2Nal][αMeK]K(Ac)N[αMeF]-NH2
modifications: disulfide 1-6
SMILES: CC(=O)NCCCC[C@@H]1NC(=O)[C@H](Cc2c[nH]c3c(C)cccc23)NC(=O)[C@H]([C@@H](C)O)NC(=O)[C@H](CC(N)=O)NC(=O)[C@@H](NC(C)=O)C(C)(C)SSC(C)(C)[C@@H](C(=O)N[C@@H](Cc2ccc(OCCN)cc2)C(=O)N[C@@H](Cc2ccc3ccccc3c2)C(=O)N[C@@](C)(CCCCN)C(=O)N[C@@H](CCCCNC(C)=O)C(=O)N[C@@H](CC(N)=O)C(=O)N[C@@](C)(Cc2ccccc2)C(N)=O)NC1=O
B7: Compound No. 64 (peptide)
peptide: Ac-[Abu]QT[Trp(7-Me)]K(Ac)C[AEF][2Nal][αMeK]K(Ac)N[dK]-NH2
modifications: thioether 1-6
B8: Compound No. 5 (peptide)
peptide: {Propanoyl(3,3,3-F3)}-[dR][Pen]QTWQ[Pen][AEF][2Nal][Thp]EN[Thp]-NH2
modifications: disulfide 2-7
SMILES: C[C@@H](O)[C@@H]1NC(=O)[C@H](CCC(N)=O)NC(=O)[C@@H](NC(=O)[C@@H](CCCNC(=N)N)NC(=O)CC(F)(F)F)C(C)(C)SSC(C)(C)[C@@H](C(=O)N[C@@H](Cc2ccc(OCCN)cc2)C(=O)N[C@@H](Cc2ccc3ccccc3c2)C(=O)NC2(C(=O)N[C@@H](CCC(=O)O)C(=O)N[C@@H](CC(N)=O)C(=O)NC3(C(N)=O)CCOCC3)CCOCC2)NC(=O)[C@H](CCC(N)=O)NC(=O)[C@H](Cc2c[nH]c3ccccc23)NC1=O
B9: Compound No. 3 (peptide)
peptide: Propionyl-[dR][Pen]QTWQ[Pen][AEF][2Nal][Thp]EN[αMeF]-NH2
modifications: disulfide 2-7
SMILES: CCC(=O)N[C@H](CCCNC(=N)N)C(=O)N[C@@H]1C(=O)N[C@@H](CCC(N)=O)C(=O)N[C@@H]([C@@H](C)O)C(=O)N[C@@H](Cc2c[nH]c3ccccc23)C(=O)N[C@@H](CCC(N)=O)C(=O)N[C@H](C(=O)N[C@@H](Cc2ccc(OCCN)cc2)C(=O)N[C@@H](Cc2ccc3ccccc3c2)C(=O)NC2(C(=O)N[C@@H](CCC(=O)O)C(=O)N[C@@H](CC(N)=O)C(=O)N[C@@](C)(Cc3ccccc3)C(N)=O)CCOCC2)C(C)(C)SSC1(C)C
B10: Compound No. 92 (peptide)
peptide: Ac-[dR][Pen]NT[Trp(7-Me)]K(Ac)[Pen][AEF][2Nal][Thp]EN[Thp]-NH2
modifications: disulfide 2-7
SMILES: CC(=O)NCCCC[C@@H]1NC(=O)[C@H](Cc2c[nH]c3c(C)cccc23)NC(=O)[C@H]([C@@H](C)O)NC(=O)[C@H](CC(N)=O)NC(=O)[C@@H](NC(=O)[C@@H](CCCNC(=N)N)NC(C)=O)C(C)(C)SSC(C)(C)[C@@H](C(=O)N[C@@H](Cc2ccc(OCCN)cc2)C(=O)N[C@@H](Cc2ccc3ccccc3c2)C(=O)NC2(C(=O)N[C@@H](CCC(=O)O)C(=O)N[C@@H](CC(N)=O)C(=O)NC3(C(N)=O)CCOCC3)CCOCC2)NC1=O
B11: Compound No. 75 (peptide)
peptide: Ac-[Pen]NT[Trp(7-Me)]K(Ac)[Pen][AEF][2Nal][αMeK]K(Ac)N[Thp]-NH2
modifications: disulfide 1-6
SMILES: CC(=O)NCCCC[C@@H]1NC(=O)[C@H](Cc2c[nH]c3c(C)cccc23)NC(=O)[C@H]([C@@H](C)O)NC(=O)[C@H](CC(N)=O)NC(=O)[C@@H](NC(C)=O)C(C)(C)SSC(C)(C)[C@@H](C(=O)N[C@@H](Cc2ccc(OCCN)cc2)C(=O)N[C@@H](Cc2ccc3ccccc3c2)C(=O)N[C@@](C)(CCCCN)C(=O)N[C@@H](CCCCNC(C)=O)C(=O)N[C@@H](CC(N)=O)C(=O)NC2(C(N)=O)CCOCC2)NC1=O

The target in one test is T1, human IL-23R (interleukin-23 receptor). Put plainly: cell-based or functional assay.
Take B1: the “NK Cell Assay (nM), IC50, IFN-gamma after IL-23 and IL-18” value (from here on “NK Cell Assay (nM), IC50, IFN-gamma”) was 8.29 nM.
With B2, the “NK Cell Assay (nM), IC50, IFN-gamma” value was determined as 2.33 nM.
Same read-out and setting: with B3 the figure was 6.03 nM.
As to B4, the “NK Cell Assay (nM), IC50, IFN-gamma” value was 13.1 nM.
Regarding B5, the “NK Cell Assay (nM), IC50, IFN-gamma” value came out at 32.1 nM.
Regarding B6, the “NK Cell Assay (nM), IC50, IFN-gamma” value came out at 4.01 nM.
On to B7, for which the “NK Cell Assay (nM), IC50, IFN-gamma” value came to 5.44 nM.
With B8, the “NK Cell Assay (nM), IC50, IFN-gamma” value is 10.3 nM.
In the case of B9, the “NK Cell Assay (nM), IC50, IFN-gamma” value is 20.1 nM.
For the molecule B10, the “NK Cell Assay (nM), IC50, IFN-gamma” value amounted to 1.46 nM.
The same measure, in the same setting: with B11 the figure was 2.69 nM.

Another test shares this target. Put plainly: cell-based or functional assay. This is another data set of the same source.
Regarding B1, the “PBMC pSTAT3 IC50 (nM)” value amounted to 4.6 nM and the “pStat3 HTRF (nM), IC50, DB cells IL23R pSTAT3 cell assay” value (from here on “pStat3 HTRF (nM), IC50”) came out at 4.16 nM.
Take B2: the “PBMC pSTAT3 IC50 (nM)” value amounted to 6.4 nM and the “pStat3 HTRF (nM), IC50” value was determined as 0.353 nM.
B3: the “pStat3 HTRF (nM), IC50” value was found to be 0.966 nM.
As to B4, the “pStat3 HTRF (nM), IC50” value turned out to be 2.27 nM.
B5: the “pStat3 HTRF (nM), IC50” value is 4.17 nM.
Take B6: the “PBMC pSTAT3 IC50 (nM)” value turned out to be 11 nM and the “pStat3 HTRF (nM), IC50” value turned out to be 1.5 nM.
Take B7: the “pStat3 HTRF (nM), IC50” value turned out to be 0.889 nM.
B8: the “PBMC pSTAT3 IC50 (nM)” value worked out at 4.7 nM and the “pStat3 HTRF (nM), IC50” value was determined as 2.94 nM.
For the molecule B9, the “PBMC pSTAT3 IC50 (nM)” value amounted to 40 nM and the “pStat3 HTRF (nM), IC50” value is 2.31 nM.
In the case of B10, the “PBMC pSTAT3 IC50 (nM)” value was determined as 3.3 nM and the “pStat3 HTRF (nM), IC50” value came to 0.206 nM.
Consider B11, for which the “PBMC pSTAT3 IC50 (nM)” value amounted to 8.9 nM and the “pStat3 HTRF (nM), IC50” value was found to be 0.787 nM.
